Laboratory results reported in paper PMC9076600, “Ultrasensitive detection of Staphylococcal enterotoxin B in milk based on target-triggered assembly of the flower like nucleic acid nanostructure†”.

Columns and labels:
Test in all cases: Binding buffer not stated; […] (50 uM) […]
[1] = target: Staphylococcal enterotoxin B (SEB) (UniProt P01552 28-266)
OVA = OVA (UniProt P01012 2-386)
[2] = target: Staphylococcal enterotoxin A (SEA) (UniProt P0A0L2 25-257)
Chain of Staphylococcal enterotoxin A (SEA) (P0A0L2 25-257): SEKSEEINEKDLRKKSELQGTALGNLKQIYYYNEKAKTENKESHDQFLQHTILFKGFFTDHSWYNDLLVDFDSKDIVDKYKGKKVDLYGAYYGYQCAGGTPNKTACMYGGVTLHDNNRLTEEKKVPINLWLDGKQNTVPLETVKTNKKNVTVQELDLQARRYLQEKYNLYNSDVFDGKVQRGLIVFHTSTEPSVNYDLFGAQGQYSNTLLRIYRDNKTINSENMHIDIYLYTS

Chain of OVA (P01012 2-386): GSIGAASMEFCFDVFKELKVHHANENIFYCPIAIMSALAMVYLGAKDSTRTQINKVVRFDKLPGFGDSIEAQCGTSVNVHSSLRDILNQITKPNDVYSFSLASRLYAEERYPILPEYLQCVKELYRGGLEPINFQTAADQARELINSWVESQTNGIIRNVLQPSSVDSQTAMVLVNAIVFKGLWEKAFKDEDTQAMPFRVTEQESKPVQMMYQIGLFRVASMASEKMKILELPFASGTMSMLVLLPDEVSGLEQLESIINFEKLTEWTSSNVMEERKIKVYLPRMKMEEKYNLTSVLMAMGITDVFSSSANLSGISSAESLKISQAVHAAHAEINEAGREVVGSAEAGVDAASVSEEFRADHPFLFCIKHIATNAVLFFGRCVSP
Chain of Staphylococcal enterotoxin B (SEB) (P01552 28-266): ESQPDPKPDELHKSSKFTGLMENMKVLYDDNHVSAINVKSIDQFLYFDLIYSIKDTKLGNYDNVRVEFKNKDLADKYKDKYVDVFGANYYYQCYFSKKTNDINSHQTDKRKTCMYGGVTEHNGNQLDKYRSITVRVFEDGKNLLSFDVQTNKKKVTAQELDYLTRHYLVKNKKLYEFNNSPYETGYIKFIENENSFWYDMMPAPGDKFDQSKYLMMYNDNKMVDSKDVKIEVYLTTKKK

B1: SEB aptamer (ssDNA)
DNA: GGTATTGAGGGTCGCATCCACTGGTCGTTGTCTGTTGTCTGTTATGTTGTTTCGTGATGGCTCTAACTCTCCTCT
[1]
  binding result: binds
OVA
  binding result: no binding
[2]
  binding result: no binding
